Measurements published in paper PMC6602295, “Structural mechanism for guanylate-binding proteins (GBPs) targeting by the Shigella E3 ligase IpaH9.8” (PLoS Pathogens, 2019).

Molecular target: T1, GBP1^LG-MD (LG-MD region of guanylate-binding protein 1, residues 1-479) (human, UniProt P32455 1-479)
T1 construct: also called C-terminally truncated GBP1; source: E. coli BL21(DE3), purified (Ni-NTA, ULP1 cleavage, second Ni-NTA, Superdex 200); not shown: His6-SUMO, N-terminal, cleaved
T1 sequence: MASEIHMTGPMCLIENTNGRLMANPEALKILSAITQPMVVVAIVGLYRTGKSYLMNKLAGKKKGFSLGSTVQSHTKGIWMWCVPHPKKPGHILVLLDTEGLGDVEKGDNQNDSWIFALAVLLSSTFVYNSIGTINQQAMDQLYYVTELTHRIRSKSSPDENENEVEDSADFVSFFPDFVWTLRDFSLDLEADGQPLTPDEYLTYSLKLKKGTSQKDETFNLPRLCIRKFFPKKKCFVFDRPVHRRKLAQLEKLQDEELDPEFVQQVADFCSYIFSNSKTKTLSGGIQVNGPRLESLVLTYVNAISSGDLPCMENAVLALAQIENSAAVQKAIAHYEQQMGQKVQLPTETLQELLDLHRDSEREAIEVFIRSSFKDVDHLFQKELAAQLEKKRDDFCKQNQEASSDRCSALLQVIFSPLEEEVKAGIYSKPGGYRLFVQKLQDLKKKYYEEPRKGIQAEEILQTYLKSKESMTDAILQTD
Assay: crystal structure; purified IpaH9.8^LRR and GBP1^LG-MD incubated overnight on ice at a 1.5:1 molar ratio, passed through Superdex 200 (25 mM Tris-HCl pH 8.0, 20 mM NaCl, 2 mM DTT), no nucleotide; crystals at 20°C in 1.6 M sodium/potassium phosphate pH 6.5; 3.6 Å
Settings: both partners purified

B1: IpaH9.8^LRR (Leucine-rich repeat domain of IpaH9.8, residues 22-252) (domain or fragment)
chain: TYADYFSAWDKWEKQALPGEERDEAVSRLKECLINNSDELRLDRLNLSSLPDNLPAQITLLNVSYNQLTNLPELPVTLKKLYSASNKLSELPVLPPALESLQVQHNELENLPALPDSLLTMNISYNEIVSLPSLPQALKNLRATRNFLTELPAFSEGNNPVVREYFFDRNQISHIPESILNLRNECSIHISDNPLSSHALPALQRLTSSPDYHGPRIYFSMSDGQQNTLHR
notes: E3 ubiquitin ligase IpaH9.8, Shigella flexneri, LRR domain, residues 22-252; source: E. coli BL21(DE3), purified (Ni-NTA, ULP1 cleavage, second Ni-NTA, Superdex 200); not shown: His6-SUMO, N-terminal, cleaved
- binding result: binds
